Legend:
KB = experiment: cell based in vitro cytotoxicity/anti-proliferation assay (summary); set-up: species or system Human; details: Cervical
Experimental: The percentage cytotoxicity was calculated using the statistical tool.

[1] = test system: PC-3 (Human Prostate Cancer); experiment: Calcein AM cytotoxicity assay; details: 48h
Experimental: (§1) All the cancer cell lines were procured from National Centre for Cell Science, Pune (India). The cell lines were maintained under conditions as described in Table 21 below. The cell lines were sub-cultured by trypsinization followed by splitting the cell suspension into fresh flasks and supplementing with fresh culture medium.
(§2) All the cell lines were grown in specified media at 37° C. with 95% Humidity and […].
(§3) The cells were trypsinized, counted by Trypan blue method in Neuebauer's Chamber and plated in wells of flat bottom 96-well plate (dark walled plate, flat bottom) at the density corresponding to 10×10^3 cells/well/180 μl medium.
(§4) Following overnight incubation, the cells were treated with test item (20 μL) at concentrations ranging from 2.5-80 μg/mL, so that the total volume in each well is 200 μL.
(§5) The cells were incubated with the test items or positive control for a time period of 48h. Following incubation, the cell cytotoxicity was estimated using Calcein AM Cell Viability Assay Kit from R&D systems (Cat No. 4892-010-K).
(§6) Fluorescence was measured at 485 nm (excitation/528 run (emission) spectra using Synergy HT micro plate reader.
(§7) Percentage cytotoxicity wrt untreated cells was calculated using formula:
(§8) Cytotoxicity=[(RFUuntreated−RFUsample)/RFUuntreated]*100
(§9) RFU: relative fluorescence units
(§10) IC50 value was calculated using Graph-Pad Prism version 4.01 software.

[2] = test system: PA-1 (Human Ovary carcinoma); experiment: Calcein AM cytotoxicity assay; details: 48h
Experimental: as §1, §2, §3, §4, §5, §6, §7, §8, §9, §10

[3] = test system: SKOV-3 (Human Ovary adenocarcinoma); experiment: Calcein AM cytotoxicity assay; details: 48h
Experimental: as §1, §2, §3, §4, §5, §6, §7, §8, §9, §10

[4] = test system: KB (Human cervical carcinoma); experiment: Calcein AM cytotoxicity assay; details: 48h
Experimental: as §1, §2, §3, §4, §5, §6, §7, §8, §9, §10

[5] = test system: VEGF release in PANC-1 cells; experiment: VEGF secretion in cancer cells (Human VEGF ELISA); type: cell-based; details: 24 h
Experimental: (§11) The cell lines were maintained in DMEM+10% […] (heat inactivated) at 37° C. with 5% CO2, and 95% humidity. Cells were counted and plated in 6-well plates for 24 h at a density of 0.5×10^6 cells/well. The cells were incubated overnight under growth conditions as described above so as to allow cell recovery and exponential growth. Cells were treated with each test item at different concentrations for 24h in serum free media. Doxorubicin was used as positive control. Secreted levels of VEGF were determined in supernatants after 24 hours using Human VEGF ELISA kit (R&D systems) as per manufacturer's protocol. Change in VEGF levels corresponding to each treatment was calculated using the following formula: […]

[6] = test system: VEGF release in MDA-MB-231 cells; experiment: VEGF secretion in cancer cells (Human VEGF ELISA); type: cell-based; details: 24 h
Experimental: as §11

B1: SEQ ID NO. 2: recombinant lectin; variant of the S. rolfsii lectin amino acid sequence (reported as Rec-2 in WO 2010/095143) (protein)
chain: TYKITVRVYQTNPDAFFHPVEKTVWKYANGGTWTITDDQHVLTMGGSGTSGTLRFHADNGESFTATFGVHNYKRWCDIVTNLAADETGMVINQQYYSQKNREEARERQLSNYQVKNAKGRNFQIVYTEAEGNDLHANLIIG
modifications: In vitro synthesis
In the case of B1, the “% Cytotoxicity” value (HT-29) is reported as 54.9%, the “% Cytotoxicity” value (PANC-1) is reported as 60.8% and the “% Cytotoxicity” value (KB) is reported as 64.0%. For the same molecule, the “% Cytotoxicity” value (MDA-MB-231) was 60.9%, the IC50 [1] was over 80 µg/mL and the IC50 [2] was 20.3 µg/mL. The IC50 [3] was over 80 µg/mL, the IC50 [4] was 18.4 µg/mL and the “Average absorbance at 450 nM” value ([5]; 2.5 μg/mL) was 1.717. The “Percentage decrease in VEGF levels” value ([5]; 2.5 μg/mL) was −5.5%, the “VEGF level” value ([5]; 2.5 μg/mL) was 1077.5 pg/mL and the “Average absorbance at 450 nM” value ([5]; 5 μg/mL) was 1.821. The “Percentage decrease in VEGF levels” value ([5]; 5 μg/mL) was −12.3%, the “VEGF level” value ([5]; 5 μg/mL) was 1146.8 pg/mL and the “Average absorbance at 450 nM” value ([5]; 10 μg/mL) was 2.085. The “Percentage decrease in VEGF levels” value ([5]; 10 μg/mL) was −29.5%, the “VEGF level” value ([5]; 10 μg/mL) was 1322.6 pg/mL and the “Average absorbance at 450 nM” value ([5]; 20 μg/mL) was 2.202. For the same molecule, the “Percentage decrease in VEGF levels” value ([5]; 20 μg/mL) was −37.2%, the “VEGF level” value ([5]; 20 μg/mL) was 1400.6 pg/mL and the “Average absorbance at 450 nM” value ([5]; 80 μg/mL) was 2.006. For the same molecule, the “Percentage decrease in VEGF levels” value ([5]; 80 μg/mL) was −24.4%, the “VEGF level” value ([5]; 80 μg/mL) was 1269.9 pg/mL and the “Average absorbance at 450 nM” value ([6]; 2.5 μg/mL) was 0.970. For the same molecule, the “Percentage decrease in VEGF levels” value ([6]; 2.5 μg/mL) was −25.0%, the “VEGF level” value ([6]; 2.5 μg/mL) was 579.3 pg/mL and the “Average absorbance at 450 nM” value ([6]; 5 μg/mL) was 0.763. The “Percentage decrease in VEGF levels” value ([6]; 5 μg/mL) was 4.8%, the “VEGF level” value ([6]; 5 μg/mL) was 441.0 pg/mL and the “Average absorbance at 450 nM” value ([6]; 10 μg/mL) was 1.072. For the same molecule, the “Percentage decrease in VEGF levels” value ([6]; 10 μg/mL) was −39.8%, the “VEGF level” value ([6]; 10 μg/mL) was 647.5 pg/mL and the “Average absorbance at 450 nM” value ([6]; 20 μg/mL) was 1.552. For the same molecule, the “Percentage decrease in VEGF levels” value ([6]; 20 μg/mL) was −108.8%, the “VEGF level” value ([6]; 20 μg/mL) was 967.3 pg/mL and the “Average absorbance at 450 nM” value ([6]; 80 μg/mL) was 2.222. For the same molecule, the “Percentage decrease in VEGF levels” value ([6]; 80 μg/mL) was −205.2% and the “VEGF level” value ([6]; 80 μg/mL) was 1413.9 pg/mL.

Source: patent US20230348564A1, “ANTI-CANCER PROTEINS” (UNICHEM LABORATORIES LTD, priority 2020, published 2023)
